Results from the supplement of paper PMC10126150.
± gives the standard deviation of the averaged measurements.

System: ATP
Test: switch fluorescence ratio, 500 uM ATP over buffer (Cy3 cluster intensity, sum of 5 cycles each) (fold (ratio)); higher = stronger signal-on switching upon ATP binding; sequences stand for … in TCGTCGGCAGCGTCAGATGTGTATAAGAGACAGTTTTTTTTTTTTTTTTTTTTTTTTT…TC
Conditions: aptamer strand: ATP DNA aptamer (quencher-CACCTGGGGGAGTATTGCGGAGGAAGG + anchor), 100 nM annealed; ATP concentration: 500 uM
In short: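 Per cluster, summed Cy3 intensity from the target cycles was divided by that from the buffer cycles to give the fluorescence ratio, then averaged per switch-domain sequence. Clusters outside 100-1000 RFU were excluded. The Cy3-labelled switching-strand clusters, on a modified Illumina MiSeq flow-cell, were annealed to 100 nM quencher-labelled ATP aptamer and imaged in selection buffer, then after 15 min with 500 uM ATP at 22 °C, for five cycles with NaOH stripping and re-annealing between them.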
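Also: ATP exposure 15 min at 22 °C before imaging.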

Sequence	switch fluorescence ratio
AAAGGGCGCA	1.02 ± 0.017
AAAGGGCTGT	1.01 ± 0.043
AAAGGGGAGT	1.04 ± 0.11
AAAGGGGGAG	0.997 ± 0.011
AAAGGGGGTT	1.04 ± 0.042
AAAGGGGTTA	1 ± 0.024
AAAGGGTAAC	0.988 ± 0.036
AAAGGGTGGG	1.01 ± 0.013
AAAGGTACGT	0.987 ± 0.021
AAAGGTAGAG	1.01 ± 0.04
AAAGGTCTGG	0.9794 ± 0.0049
AAAGGTTCAA	1.03 ± 0.011
AAAGGTTTGT	1.02 ± 0.024
AAAGTAGACA	1.005 ± 0.0063
AAAGTCTAAA	0.977 ± 0.015
AAAGTCTCGT	0.972 ± 0.018
AAAGTGATTA	1.01 ± 0.022
AAAGTGGTTC	1.04 ± 0.053
AAAGTGTGTT	0.993 ± 0.025
AAAGTTAATA	0.9897 ± 0.0064
AAAGTTACGT	1.01 ± 0.044
AAAGTTCGGG	0.982 ± 0.033
AAAGTTGCAG	1.02 ± 0.023

Sequence	switch fluorescence ratio
AAAGTTGTCT	1.01 ± 0.028
AAAGTTTGCG	1.04 ± 0.11
AAATAAAGCT	1.07 ± 0.073
AAATAAATTT	1.01 ± 0.055
AAATAACTAG	0.99 ± 0.015
AAATAACTTT	1.027 ± 0.0051
AAATAATGCA	0.9863 ± 0.0076
AAATAATGGT	1.02 ± 0.041
AAATAATGT	1.02 ± 0.016
AAATACCGTT	1.021 ± 0.0057
AAATACGGGA	1.17 ± 0.13
AAATAGGCA	0.981 ± 0.017
AAATAGGGCT	1.004 ± 0.0097
AAATAGGGGG	0.967 ± 0.026
AAATATCTCA	1.02 ± 0.013
AAATATCTCT	0.982 ± 0.048
AAATATCTGC	1.04 ± 0.029
AAATATGACT	1.06 ± 0.058
AAATCAAATT	1.007 ± 0.0055
AAATCAGTGG	0.998 ± 0.031
AAATCATATT	0.968 ± 0.0054
AAATCATTAA	1.02 ± 0.018
AAATCCTTGT	0.992 ± 0.039

Sequence	switch fluorescence ratio
AAATCGAGGT	0.9917 ± 0.0052
AAATCGATGG	0.9987 ± 0.0023
AAATCGCCTT	1.05 ± 0.02
AAATCGTCGG	0.991 ± 0.024
AAATCTCGT	0.995 ± 0.058
AAATCTTTAT	1.01 ± 0.032
AAATGAAAAC	0.98 ± 0.037
AAATGAACCG	1.06 ± 0.013
AAATGAGATT	1.002 ± 0.0048
AAATGCAGGT	0.9908 ± 0.0061
AAATGCCGAT	0.992 ± 0.015
AAATGCGGTA	1 ± 0.056
AAATGCTTG	0.983 ± 0.019
AAATGGGACT	1.03 ± 0.026
AAATGGGGGT	0.975 ± 0.011
AAATGGGTAC	0.9935 ± 0.0099
AAATGGGTTC	0.9874 ± 0.0083
AAATGGTGAT	1.035 ± 0.0041
AAATGGTGTA	0.983 ± 0.028
AAATGGTTGG	0.995 ± 0.025
AAATGTAAAA	1.01 ± 0.042
AAATGTCTAG	1.01 ± 0.037
AAATGTCTCT	1.01 ± 0.012

Sequence	switch fluorescence ratio
AAATGTTTAA	1.01 ± 0.019
AAATGTTTGT	1.006 ± 0.0099
AAATTAAAGG	1 ± 0.013
AAATTAGGAT	0.997 ± 0.039
AAATTAGGTC	0.95 ± 0.11
AAATTATTTC	0.989 ± 0.033
AAATTCAATG	0.995 ± 0.013
AAATTCATTA	0.981 ± 0.083
AAATTGCGAC	1.03 ± 0.026
AAATTGGACA	1.04 ± 0.049
AAATTGGGG	0.9583 ± 0.0056
AAATTGGGGG	1.02 ± 0.075
AAATTGGGTG	1.02 ± 0.048
AAATTGGTTG	0.976 ± 0.014
AAATTGGTTT	0.995 ± 0.032
AAATTGTAAA	0.969 ± 0.051
AAATTGTAAT	1.02 ± 0.041
AAATTGTATT	1 ± 0.024
AAATTGTTTT	1.01 ± 0.019
AAATTTAATG	0.961 ± 0.016
AAATTTACAT	1.002 ± 0.0034
AAATTTAGCT	1.0313 ± 0.0006
AAATTTATAA	0.984 ± 0.044

Sequence	switch fluorescence ratio
AAATTTATGT	0.972 ± 0.027
AAATTTCTTA	1 ± 0.026
AAATTTTGTT	0.987 ± 0.021
AACAAATGAT	1.007 ± 0.0024
AACAACCATT	1.05 ± 0.051
AACAAGTTAG	1.01 ± 0.015
AACAATATTG	1.02 ± 0.028
AACAATGCTA	1.05 ± 0.026
AACAATTCTG	1.01 ± 0.012
AACACAAGGT	1.02 ± 0.017
AACACGTATA	1.227 ± 0.0097
AACAGAAAGG	0.982 ± 0.045
AACAGAAATA	1.01 ± 0.021
AACAGAGTTA	1.02 ± 0.013
AACAGGACTG	1 ± 0.036
AACAGGCGAT	0.985 ± 0.034
AACAGGTACT	1.074 ± 0.0094
AACAGTAGCA	1.03 ± 0.019
AACATAGGTG	1.14 ± 0.056
AACATGGGGC	1.02 ± 0.041
AACATTGTGG	1.017 ± 0.0063
AACATTTAGC	1.01 ± 0.039
AACATTTCTT	0.976 ± 0.045

Sequence	switch fluorescence ratio
AACATTTTGC	0.9941 ± 0.0069
AACATTTTTT	0.99 ± 0.019
AACCACGTTA	1.09 ± 0.053
AACCACTGGG	1.17 ± 0.13
AACCAGCACC	1.0991 ± 0.00048
AACCATACGT	1.29 ± 0.032
AACCCGCACC	2.75 ± 0.12
AACCCGCCTT	1.07 ± 0.067
AACCGAAGAC	2.15 ± 0.075
AACCGGGGGG	0.994 ± 0.045
AACCGGTATT	0.9752 ± 0.0059
AACCTATGCT	1.012 ± 0.0018
AACCTCATGC	1.17 ± 0.086
AACCTCGTCT	1.07 ± 0.039
AACCTCTATT	1.03 ± 0.015
AACCTGCGGA	1.02 ± 0.011
AACCTGGTCG	1.069 ± 0.0046
AACCTTTCTG	1.5 ± 0.021
AACGAAAAGT	0.996 ± 0.012
AACGAATTAC	1.79 ± 0.16
AACGAGGCAG	1.21 ± 0.038
AACGATGTAA	0.9951 ± 0.0059
AACGATTGGC	1.08 ± 0.018

Sequence	switch fluorescence ratio
AACGCACGTT	1.28 ± 0.02
AACGCGTGGT	1.01 ± 0.02
AACGCTATGT	1.05 ± 0.023
AACGCTGAGG	1.01 ± 0.009
AACGCTTATT	1.09 ± 0.064
AACGGACAGG	1.27 ± 0.049
AACGGGAAGA	1.02 ± 0.028
AACGGGAGAC	2.52 ± 0.24
AACGGGCCCG	1 ± 0.04
AACGGGCGGG	1.15 ± 0.014
AACGGGCTGG	0.996 ± 0.04
AACGGGGGCT	0.9778 ± 0.006
AACGGGGGGG	1.05 ± 0.037
AACGGGGGTC	1 ± 0.043
AACGGGGGTG	1.01 ± 0.045
AACGGGGTGG	0.976 ± 0.044
AACGGGTCTG	1.01 ± 0.039
AACGGGTTAC	1.14 ± 0.019
AACGGTAATT	1.1 ± 0.034
